This is an account of results in paper doi:10.1101/2023.02.08.527602 (bioRxiv, 2023).

The target of this assay is Soluble SorCS2 (extracellular domain of SorCS2) (UniProt Q96PQ0 51-1078). As to the kind of experiment: SPR.
Soluble SorCS2 (extracellular domain of SorCS2), sequence (Q96PQ0 51-1078): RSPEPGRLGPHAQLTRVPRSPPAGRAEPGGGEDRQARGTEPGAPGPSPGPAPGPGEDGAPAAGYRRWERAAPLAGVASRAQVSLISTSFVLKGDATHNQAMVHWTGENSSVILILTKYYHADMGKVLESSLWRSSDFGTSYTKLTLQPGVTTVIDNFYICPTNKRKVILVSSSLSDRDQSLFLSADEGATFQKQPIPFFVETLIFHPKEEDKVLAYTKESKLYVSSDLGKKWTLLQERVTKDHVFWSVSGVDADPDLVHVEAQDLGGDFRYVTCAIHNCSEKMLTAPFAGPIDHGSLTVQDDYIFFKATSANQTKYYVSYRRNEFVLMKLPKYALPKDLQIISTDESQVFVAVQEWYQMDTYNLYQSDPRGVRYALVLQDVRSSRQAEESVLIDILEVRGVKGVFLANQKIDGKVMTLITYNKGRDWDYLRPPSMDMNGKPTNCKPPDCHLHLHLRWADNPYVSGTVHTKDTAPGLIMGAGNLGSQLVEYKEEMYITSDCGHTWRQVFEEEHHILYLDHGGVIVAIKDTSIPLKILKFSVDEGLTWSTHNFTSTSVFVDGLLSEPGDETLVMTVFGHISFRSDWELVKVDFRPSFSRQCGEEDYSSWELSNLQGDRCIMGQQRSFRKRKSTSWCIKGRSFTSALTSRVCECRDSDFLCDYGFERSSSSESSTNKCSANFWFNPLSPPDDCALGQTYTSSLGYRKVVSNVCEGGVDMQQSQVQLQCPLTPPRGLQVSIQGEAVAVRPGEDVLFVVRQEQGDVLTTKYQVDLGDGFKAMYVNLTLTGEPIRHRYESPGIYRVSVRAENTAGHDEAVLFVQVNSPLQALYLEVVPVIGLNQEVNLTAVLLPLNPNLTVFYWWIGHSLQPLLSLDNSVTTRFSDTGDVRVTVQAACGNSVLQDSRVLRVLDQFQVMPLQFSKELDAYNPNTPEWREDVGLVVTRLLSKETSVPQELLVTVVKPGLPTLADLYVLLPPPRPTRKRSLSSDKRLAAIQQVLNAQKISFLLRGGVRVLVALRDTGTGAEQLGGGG

B1: human progranulin (hPGRN) used in SPR (ligand, UniProt P28799 18-593, looked up)
chain: TRCPDGQFCPVACCLDPGGASYSCCRPLLDKWPTTLSRHLGGPCQVDAHCSAGHSCIFTVSGTSSCCPFPEAVACGDGHHCCPRGFHCSADGRSCFQRSGNNSVGAIQCPDSQFECPDFSTCCVMVDGSWGCCPMPQASCCEDRVHCCPHGAFCDLVHTRCITPTGTHPLAKKLPAQRTNRAVALSSSVMCPDARSRCPDGSTCCELPSGKYGCCPMPNATCCSDHLHCCPQDTVCDLIQSKCLSKENATTDLLTKLPAHTVGDVKCDMEVSCPDGYTCCRLQSGAWGCCPFTQAVCCEDHIHCCPAGFTCDTQKGTCEQGPHQVPWMEKAPAHLSLPDPQALKRDVPCDNVSSCPSSDTCCQLTSGEWGCCPIPEAVCCSDHQHCCPQGYTCVAEGQCQRGSEIVAGLEKMPARRASLSHPRDIGCDQHTSCPVGQTCCPSLGGSWACCQLPHAVCCEDRQHCCPAGYTCNVKARSCEKEVVSAQPATFLARSPHVGVKDVECGEGHFCHDNQTCCRDNRQGWACCPYRQGVCCADRRHCCPAGFRCAARGTKCLRREAPRWDAPLRDPALRQLL
The molecule B1 showed a Kd of about 3 nM.
